Assay results published in patent publication US12162918B2, “Periostin compounds for the treatment of haematological complications” (Chemotherapeutisches Forschungsinstitut Georg-Speyer-Haus, priority 2018, dated 2024).
“Also recorded” adds a separate entry of the source.

Key:
Lin− cells [1] = test: Plating of warfarin-exposed Lin− cells on untreated versus warfarin-treated stroma, with or without MK-2206; assay type: cell-based, mice; settings: MK-2206 5 μM added to cocultures, P=0.02
integrin β3 = molecular target: T1, integrin β3 (Mus musculus, UniProt O54890+P43406); test: Inhibition of integrin β3 by cilengitide, pAKT in Lin− cells cocultured on BM stroma; assay type: cell-based, mice; settings: cilengitide 0.05 μM, coculture on BM stroma cells, P=0.03
T1 construct: endogenous in cells; host or cells: murine Lin− bone marrow cells cocultured on murine BM stroma cells
Experimental: (§1) Concentrations of drugs for in vitro use were 2 μM for warfarin, 2 μg/ml for periostin, 5 μM for the AKT inhibitor MK-2206 (Selleck Chemicals, Houston, TX) and cilengitide (Selleck Chemicals, Houston, TX, Cat. No. #S7077) was used at 0.05 μM. Phosphate buffered saline served as the vehicle control.
The PE-labelled anti-pAKT antibody (Cell signaling, #5315, Danvers, MA) was used for intracellular flow cytometry after fixation and permeabilization of the cells.

patients = test: Peripheral blood counts of patients on VKA versus control patients; assay type: in vivo, human
Text: For FIGS. 6C-6H: Data of patients on VKA were obtained from the French health care databases. Patients with hematological disease, inflammation or sepsis were excluded. Patients admitted to the hospital for dermatological problems without hematological disease or sepsis acted as controls.

HSC = test: Competitive transplantation of bone marrow from periostin- or vitamin K-treated donor mice; assay type: in vivo; settings: for percentage of LKS cells, cell cycle of transplanted LKS cells, number of colonies in methylcellulose: previously treated bone marrow cells compared to vehicle
Experimental: (§2) 5-fluorouracil was intraperitoneally injected every week at a dose of 75 mg/kg for a total of 4 doses or as a one time dose of 200 mg/kg. Recombinant mouse periostin (R&D Systems, Minneapolis, MN, cat. no. 2955-F2), produced in the Sf21 (baculovirus)-derived insect cell line, was administered intravenously at a dose of 2-4 μg per day and vitamin K was given at a dose of 15 mg/kg by oral gavage for four consecutive days.
SJL (CD45.1) donor mice were treated with vehicle or warfarin, euthanized and long bones were flushed, followed by RBC lysis (Life Technologies, Darmstadt, Germany). For competitive transplantation 2×10^6 total BM cells from SJL mice were co-transplanted with 1×10^6 CD45.2+ BM competitor cells into lethally irradiated (900 cGy) C57BL/6N (CD45.2+) recipient mice. For serial transplantation 2×10^6 total CD45.1+ BM cells were transplanted into lethally irradiated C57BL/6N recipient mice. Cell engraftment and chimerism were assessed by flow cytometry of peripheral blood leukocytes for CD45.1 and CD45.2 after 4, 8, 12 and 16 weeks post transplantation. In the limiting dilution experiment we treated primary CD45.1+ donor mice with vehicle or warfarin for 14 days and, consequently, transplanted 5×10^5, 12.5×10^4, 6×10^4 and 1.5×10^4 pooled BM cells into 5 CD45.2+ recipients per group adding 5×10^5 CD45.2+ supporter cells. In indicated experiments we transplanted 5,000 or 10,000 sorted CD45.1+ LKS cells from mice treated with vehicle or warfarin plus 1×10^6 CD45.2+ total BM supporter cells into CD45.2+ recipient mice.

wildtype mice = test: Complete blood count and flow cytometry of peripheral blood and bone marrow of treated mice; assay type: in vivo; settings: administration of vitamin K1, P=0.04
Experimental: (§3) 0.5 mg/kg/d or 0.05 mg/kg/d of warfarin, resuspended in phosphate-buffered saline was administered to mice via subcutaneously implanted osmotic minipumps (ALZET minipumps, Cupertino, CA). The osmotic minipumps were changed after 14 days (if the experiment went beyond 14 days of treatment). Sham operated (skin incision and suture) mice served as controls. Warfarin treatment continued for 10-14 days. In the xenotransplantation experiments the mice were treated with warfarin via the drinking water (or normal drinking water) at a dose of 0.72 mg/100 ml for a total of 3 days a week (Pfeilschifter et al., 2011).
as §2
We assessed the complete blood count of vehicle or warfarin-treated mice using a complete blood count analyzer (Scil Vet ABC, Gurnee, IL). Peripheral blood and bone marrow samples were stained with antibodies for flow cytometry, which was performed on a BD LSR Fortessa (BD Biosciences, Heidelberg, Germany). The lineage antibody cocktail contained antibodies to B220, CD5, Ter119, F4/80 and CD11b. Engraftment of human cells in NSG mice was assessed using anti-human CD45 (BD Biosciences, San José, CA).

[2] = test system: hematopoietic cells from murine bone marrow; test: In vitro rescue experiment with periostin in stroma/Lin− cocultures; assay type: cell-based; settings: for absolute number of hematopoietic cells in coculture: 2 μg/ml periostin added, warfarin-treated stroma, 5 days, P=0.02
Experimental: as §1
To test the direct effect of warfarin on hematopoietic cells 100,000 Lin− cells were cultured in 2 μM vehicle or warfarin in the absence of stroma cells for a total of 7 days. For the in vitro rescue experiment with periostin stroma cells were grown in warfarin for 14 days, before vehicle or periostin were added.

Lin− cells [3] = test: Adhesion assay of Lin− cells to stroma cells; assay type: cell-based, mice; settings: periostin added, warfarin- and more prominently vehicle-treated conditions, P=0.03
Text: In vivo administration of periostin to mice treated with warfarin also ‘rescued’ the number of LKS cells positive for integrin β3, whose binding to its ligand periostin (Gillan et al., 2002) is known to mediate HSC support (P=0.0013; FIG. 5A) (Khurana and Verfaillie, 2013). […] In order to test, whether the periostin/integrin β3-axis mediates the adhesion of HSPC to stroma, the inventors performed an adhesion assay plating untreated Lin− cells on vehicle- or warfarin-treated stroma cells in the presence or absence of periostin. […] Due to the role of pAKT, which lies downstream of integrin β3 (Hynes, 2002), in periostin-mediated cell survival (Bao et al., 2004) the inventors tested the effect of inhibition of integrin β3 by cilengitide on pAKT in Lin− cells after coculture on BM stroma cells. Similar to the reduction of pAKT+ Lin− cells in mice treated with warfarin (FIG. 3A), inhibition of integrin β3 led to a decrease of pAKT in Lin− cells (P=0.03).
as §1

[4] = test system: LKS cells and myeloid cells; test: In vivo administration of periostin to mice treated with warfarin
Experimental: as §3, §2
For cell cycle analysis cells were permeabilized and fixed with the cytoperm/cytofix kit (BD Biosciences, San Jose, CA), followed by staining with an antibody to Ki67-PE (Biolegend, San Diego, CA) overnight at 4 C. Consequently, cells were washed and resuspended in PBS with DAPI (1 ng/ml). For detection of apoptosis cells were first stained for surface markers, washed with Annexin V buffer (Life Technologies, Darmstadt, Germany), stained with Annexin V-PE (Life Technologies, Darmstadt, Germany), washed with Annexin V binding buffer, resuspended in PBS with DAPI and analyzed.

T1 sequence (O54890 26-787): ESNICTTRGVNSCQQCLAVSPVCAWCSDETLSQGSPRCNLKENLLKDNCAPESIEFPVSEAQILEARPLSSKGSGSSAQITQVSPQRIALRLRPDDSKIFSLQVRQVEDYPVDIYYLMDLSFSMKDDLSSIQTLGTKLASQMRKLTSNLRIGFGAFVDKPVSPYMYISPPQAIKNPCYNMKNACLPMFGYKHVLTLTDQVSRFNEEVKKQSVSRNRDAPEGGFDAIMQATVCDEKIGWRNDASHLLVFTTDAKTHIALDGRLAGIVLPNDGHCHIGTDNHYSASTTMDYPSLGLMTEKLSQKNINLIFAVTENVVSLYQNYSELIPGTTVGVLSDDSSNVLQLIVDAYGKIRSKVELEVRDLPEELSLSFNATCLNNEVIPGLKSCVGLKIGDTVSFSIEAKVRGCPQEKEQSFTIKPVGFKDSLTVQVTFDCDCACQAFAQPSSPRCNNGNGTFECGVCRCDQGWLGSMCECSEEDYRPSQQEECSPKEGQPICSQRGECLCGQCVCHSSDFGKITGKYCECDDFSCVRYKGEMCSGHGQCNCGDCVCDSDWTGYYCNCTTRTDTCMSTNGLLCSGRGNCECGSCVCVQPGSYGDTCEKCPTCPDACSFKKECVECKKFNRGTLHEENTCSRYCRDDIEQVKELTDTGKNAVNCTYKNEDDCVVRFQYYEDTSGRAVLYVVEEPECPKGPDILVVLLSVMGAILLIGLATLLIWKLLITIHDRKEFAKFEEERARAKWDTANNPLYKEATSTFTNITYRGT
T1 sequence (P43406 31-885 limits assumed): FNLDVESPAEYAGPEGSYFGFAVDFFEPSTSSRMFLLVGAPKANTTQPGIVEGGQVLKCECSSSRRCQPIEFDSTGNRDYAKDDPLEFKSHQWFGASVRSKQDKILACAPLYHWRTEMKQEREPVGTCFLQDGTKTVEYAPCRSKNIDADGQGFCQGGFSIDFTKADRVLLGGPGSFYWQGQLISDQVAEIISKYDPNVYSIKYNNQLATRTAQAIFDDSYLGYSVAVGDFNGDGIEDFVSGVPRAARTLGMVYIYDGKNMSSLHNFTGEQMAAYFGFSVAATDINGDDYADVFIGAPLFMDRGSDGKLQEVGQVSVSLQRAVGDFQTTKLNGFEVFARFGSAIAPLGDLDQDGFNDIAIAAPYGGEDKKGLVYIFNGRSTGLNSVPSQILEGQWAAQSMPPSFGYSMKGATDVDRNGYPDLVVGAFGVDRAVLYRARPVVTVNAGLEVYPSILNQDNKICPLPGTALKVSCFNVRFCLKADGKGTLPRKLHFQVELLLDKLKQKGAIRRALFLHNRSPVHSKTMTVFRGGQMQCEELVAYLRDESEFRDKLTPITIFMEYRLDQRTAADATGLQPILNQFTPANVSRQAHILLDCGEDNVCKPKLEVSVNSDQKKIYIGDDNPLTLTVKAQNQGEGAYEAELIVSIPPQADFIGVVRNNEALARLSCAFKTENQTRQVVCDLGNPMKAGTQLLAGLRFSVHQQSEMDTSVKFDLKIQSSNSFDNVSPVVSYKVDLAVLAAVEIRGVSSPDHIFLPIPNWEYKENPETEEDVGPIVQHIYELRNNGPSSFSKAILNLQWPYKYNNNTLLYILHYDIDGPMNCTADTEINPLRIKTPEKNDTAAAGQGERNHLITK
T1 sequence (P43406 887-1044 partner limits assumed): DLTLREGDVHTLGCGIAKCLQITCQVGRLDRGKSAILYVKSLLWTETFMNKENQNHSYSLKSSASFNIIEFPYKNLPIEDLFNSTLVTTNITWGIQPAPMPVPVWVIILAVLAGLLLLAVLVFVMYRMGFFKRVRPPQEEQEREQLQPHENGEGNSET

**Q.** `NC1(c2ccc(-c3nc4ccn5c(=O)[nH]nc5c4cc3-c3ccccc3)cc2)CCC1` [MK-2206] was tested. Which “temporary recovery of warfarin-exposed Lin− cells on untreated stroma” value (Lin− cells [1]) did it give?
**A.** prevented

**Q.** `CC(C)[C@H]1C(=O)N[C@@H](CCCN=C(N)N)C(=O)NCC(=O)N[C@@H](CC(=O)O)C(=O)N[C@H](Cc2ccccc2)C(=O)N1C` [cilengitide] was tested. Which “pAKT in Lin− cells” value (integrin β3) did it give?
**A.** decrease

**Q.** `O=C1c2ccccc2C(=O)C1c1ccc(F)cc1` [fluindione] was tested. Which “absolute number of leukocytes” value (patients; 282 patients on warfarin (P=0.0007) or 89 on fluindione (P=0.029) vs 145 control patients) did it give?
**A.** reduced

**Q.** What about the “absolute number of monocytes” value (patients; 282 patients on warfarin (P=0.004) or 89 on fluindione (P=0.046) vs 145 control patients) of the same molecule?
**A.** reduced

**Q.** And the platelets (patients; warfarin- or fluindione-treated patients)?
**A.** not reduced

**Q.** For `CC1=C(C/C=C(\C)CCC[C@H](C)CCC[C@H](C)CCCC(C)C)C(=O)c2ccccc2C1=O` [vitamin K1], which “percentage of LKS cells, cell cycle of transplanted LKS cells, number of colonies in methylcellulose” value (HSC) is on record?
**A.** did not lead to an increase

**Q.** And the “engraftment of donor cells” value (HSC; treatment of donor mice with vitamin K prior to competitive transplantation)?
**A.** did not lead to increased engraftment

**Q.** And the “decreased percentage of myeloid cells in previously warfarin-treated mice” value (wildtype mice)?
**A.** rescued

B1: periostin: Recombinant mouse periostin (R&D Systems, cat. no. 2955-F2), produced in the Sf21 (baculovirus)-derived insect cell line (protein)
chain: NSYYDKVLAHSRIRGRDQGPNVCALQQILGTKKKYFSSCKNWYQGAICGKKTTVLYECCPGYMRMEGMKGCPAVMPIDHVYGTLGIVGATTTQHYSDVSKLREEIEGKGSYTYFAPSNEAWENLDSDIRRGLENNVNVELLNALHSHMVNKRMLTKDLKHGMVIPSMYNNLGLFINHYPNGVVTVNCARVIHGNQIATNGVVHVIDRVLTQIGTSIQDFLEAEDDLSSFRAAAITSDLLESLGRDGHFTLFAPTNEAFEKLPRGVLERIMGDKVASEALMKYHILNTLQCSEAITGGAVFETMEGNTIEIGCEGDSISINGIKMVNKKDIVTKNGVIHLIDEVLIPDSAKQVIELAGKQQTTFTDLVAQLGLASSLKPDGEYTLLAPVNNAFSDDTLSMDQRLLKLILQNHILKVKVGLSDLYNGQILETIGGKQLRVFVYRTAICIENSCMVRGSKQGRNGAIHIFREIIQPAEKSLHDKLRQDKRFSIFLSLLEAADLKDLLTQPGDWTLFAPTNDAFKGMTSEERELLIGDKNALQNIILYHLTPGVYIGKGFEPGVTNILKTTQGSKIYLKGVNETLLVNELKSKESDIMTTNGVIHVVDKLLYPADIPVGNDQLLELLNKLIKYIQIKFVRGSTFKEIPMTVYRPAMTKIQIEGDPDFRLIKEGETVTEVIHGEPVIKKYTKIIDGVPVEITEKQTREERIITGPEIKYTRISTGGGETGETLQKFLQKEVSKVTKFIEGGDGHLFEDEEIKRLLQGDTPAKKIPANKRVQGPRRRSREGRSQ
**Q.** B1 was tested. Which “absolute number of hematopoietic cells in coculture” value [2] did it give?
**A.** increase of the number of hematopoietic cells

**Q.** What about the “absolute number of hematopoietic cells in coculture” value ([2]; listed as recombinant periostin) of the same molecule?
**A.** restored

**Q.** What about the “percentage of LKS cells in warfarin-treated cultures” value ([2]; periostin added, P=0.056) of the same molecule?
**A.** strong trend towards restoration

**Q.** What about the “adhesion of Lin− cells to stroma” value (Lin− cells [3]) of the same molecule?
**A.** restored or augmented

**Q.** What about the “engraftment of CD45.1+ bone marrow (ratio CD45.1/CD45.2)” value (HSC; donor treated for four days, four weeks after transplantation, P=0.02) of the same molecule?
**A.** increased engraftment

**Q.** And the “engraftment of CD45.1+ bone marrow” value (HSC; later time points (data not shown))?
**A.** not at later time points

**Q.** What about the “percentage of LKS cells, cell cycle of transplanted LKS cells, number of colonies in methylcellulose” value (HSC) of the same molecule?
**A.** did not lead to an increase

**Q.** What about the “annexin V+ apoptotic LKS cells” value ([4]; periostin and warfarin (or vehicle) vs warfarin (or vehicle) alone, P=0.02) of the same molecule?
**A.** significantly reduced

**Q.** What about the “median fluorescence intensity of integrin β3 on LKS cells” value ([4]; periostin to warfarin-treated mice) of the same molecule?
**A.** remained unchanged

**Q.** And the “percentage of myeloid cells in peripheral blood” value ([4]; periostin to warfarin-treated mice, 4 day treatment, P=0.007)?
**A.** rescued; also recorded: increase of the percentage of myeloid cells

**Q.** What about the “number of LKS cells positive for integrin β3” value ([4]; periostin to warfarin-treated mice, P=0.0013) of the same molecule?
**A.** rescued
